Reference: patent US20170291958

Molecular target: Flag-KRAS

B1: Flag-PIASγ (protein)
chain: MAAELVEAKNMVMSFRVSDLQMLLGFVGRSKSGLKHELVTRALQLVQFDCSPELFKKIKELYETRYAKKNSEPAPQPHRPLDPLTMHSTYDRAGAVPRTPLAGPNIDYPVLYGKYLNGLGRLPAKTLKPEVRLVKLPFFNMLDELLKPTELVPQNNEKLQESPCIFALTPRQVELIRNSRELQPGVKAVQVVLRICYSDTSCPQEDQYPPNIAVKVNHSYCSVPGYYPSNKPGVEPKRPCRPINLTHLMYLSSATNRITVTWGNYGKSYSVALYLVRQLTSSELLQRLKTIGVKHPELCKALVKEKLRLDPDSEIATTGVRVSLICPLVKMRLSVPCRAETCAHLQCFDAVFYLQMNEKKPTWMCPVCDKPAPYDQLIIDGLLSKILSECEDADEIEYLVDGSWCPIRAEKERSCSPQGAILVLGPSDANGLLPAPSVNGSGALGSTGGGGPVGSMENGKPGADVVDLTLDSSSSSEDEEEEEEEEEDEDEEGPRPKRRCPFQKGLVPAC
- KRAS sumoylation (HA-SUMO3 blot of Flag immunoprecipitates): Expression of PIASγ enhanced KRAS sumoylation, which was further stimulated by expression of UBC9 (FIG. 3D)
